Experimental data reported in PMC6539110, “A Novel G-Quadruplex Binding Protein in Yeast—Slx9”.

Key:
Slx9 (6xHis-Slx9) [1] = molecular target: T1, Slx9 (6xHis-Slx9) (Saccharomyces cerevisiae, UniProt P53251 1-210); assay: filter binding; Filter binding: 50 mM Tris/HCl pH 8.0, 125 mM KCl, 5 mM DTT, 10% glycerol, 10 nM DNA, 0-65 uM Slx9, on ice 30 min; MST: 25 nM Cy5-DNA, NaCl (buffer partly given), 0.5% BSA, 0.05% Tween-20, 24 C; conditions: protein: recombinant, tags: 6xHis (pET28a EcoRI/NotI; about 30 kDa)
T1 sequence: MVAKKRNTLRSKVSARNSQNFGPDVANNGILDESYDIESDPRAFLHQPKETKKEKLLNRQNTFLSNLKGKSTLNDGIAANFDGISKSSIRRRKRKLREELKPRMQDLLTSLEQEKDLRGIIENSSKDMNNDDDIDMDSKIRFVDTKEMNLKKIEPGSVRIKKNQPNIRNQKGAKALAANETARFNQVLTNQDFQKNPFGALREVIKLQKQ

Slx9 (6xHis-Slx9) [2] = molecular target: T1, Slx9 (6xHis-Slx9); assay: filter binding; listed as G4TP2; Filter binding: 50 mM Tris/HCl pH 8.0, 125 mM KCl, 5 mM DTT, 10% glycerol, 10 nM DNA, 0-65 uM Slx9, on ice 30 min; MST: 25 nM Cy5-DNA, NaCl (buffer partly given), 0.5% BSA, 0.05% Tween-20, 24 C; conditions: protein: recombinant; tags: 6xHis (pET28a EcoRI/NotI; about 30 kDa); label: 5' 32P; folded G4

In the case of AAAAAAAAAAGGGTACGGTGGGTAATAAGGGAAGGTATCGGG (structured_DNA) [G4IX], the Kd (Slx9 (6xHis-Slx9) [1]; 5' Cy5 (MST), folded G4) is reported as 0.55 ± 0.08 µM.

With AAAAAAAAAAGGGGGAGCTGGGGTAGATGGGAATGTGAGGG (structured_DNA) [G4TP (G4TP1/G4TP2 in Fig. 1C)] the Kd (Slx9 (6xHis-Slx9) [2]) was 530 ± 100 nM.

Work on AAAAAAAAAAGCGTACGGTGCGTAATAACGCAAGCTATCGCG (ssDNA) [G4mut (mut-G4IX)] yielded a Kd (Slx9 (6xHis-Slx9) [1]; 5' Cy5 (MST), cannot fold G4) of 15.7 ± 3.57 µM.

B1: dsDNA (dsDNA)
DNA 1: GACGCTGCCGAATTCTGGCTTGCTAGGACATCTTTGCCCACGTTGACCCG
DNA 2: CGGGTCAACGTGGGCAAAGATGTCCTAGCAAGCCAGAATTCGGCAGCGTC
In the case of B1, the Kd (Slx9 (6xHis-Slx9) [1]; label: 5' 32P, blunt) is reported as 5.27 ± 1.18 µM.

B2: bubble (dsDNA)
DNA 1: CGGGTCAACGTGGGCAAAGCCAATGCGATCGGCCAGAATTCGGCAGCGTC
DNA 2: GACGCTGCCGAATTCTGGCTTGCTCGGACATCTTTGCCCACGTTGACCCG
B2 was tested, and the Kd (Slx9 (6xHis-Slx9) [1]; label: 5' 32P, blunt, central mismatched bubble) was 1.73 ± 0.42 µM.

B3: fork (dsDNA)
DNA 1: GACGCTGCCGAATTCTGGCTTGCTAGGACATCTTTGCCCACGTTGACCCG
DNA 2: CGGGTCAACGTGGGCAAAGATGTCCTAGCAATGTAATCGTCTATGACGTC
For B3, the Kd (Slx9 (6xHis-Slx9) [1]; label: 5' 32P, fork 1:2, 5' arm of strand 1 and 3' arm of strand 2 unpaired (about 19 nt)) was 4.21 ± 0.64 µM.

B4: 4-fork (4-way junction) (dsDNA)
DNA 1: GACGCTGCCGAATTCTGGCTTGCTAGGACATCTTTGCCCACGTTGACCCG
DNA 2: CGGGTCAACGTGGGCAAAGATGTCCTAGCAATGTAATCGTCTATGACGTC
DNA 3: GACGTCATAGACGATTACATTGCTAGGACATGCTGTCTAGAGACTATCGC
DNA 4: GCGATAGTCTCTAGACAGCATGTCCTAGCAAGCCAGAATTCGGCAGCGTC
In the case of B4, the Kd (Slx9 (6xHis-Slx9) [1]; label: 5' 32P, four-way junction 1:2 2:3 3:4 4:1) is reported as 3.72 ± 0.62 µM.
